What was measured:
[1] = molecular target: MERTK (UniProt Q12866); assay: phosphorylation enrichment, bacterial display (enrichment ratio); higher = better substrate or ligand; peptides without Tyr show the background
[2] = tested on: c-Abl (mouse); assay: as above
[3] = molecular target: Hck (UniProt P08631); assay: as above
[4] = molecular target: Fes (UniProt P07332); assay: as above
[5] = molecular target: EPHB2 (UniProt P29323); assay: as above
[6] = molecular target: EPHB1 (UniProt P54762); assay: as above
Sequence of EPHB1 (P54762 whole entry, looked up): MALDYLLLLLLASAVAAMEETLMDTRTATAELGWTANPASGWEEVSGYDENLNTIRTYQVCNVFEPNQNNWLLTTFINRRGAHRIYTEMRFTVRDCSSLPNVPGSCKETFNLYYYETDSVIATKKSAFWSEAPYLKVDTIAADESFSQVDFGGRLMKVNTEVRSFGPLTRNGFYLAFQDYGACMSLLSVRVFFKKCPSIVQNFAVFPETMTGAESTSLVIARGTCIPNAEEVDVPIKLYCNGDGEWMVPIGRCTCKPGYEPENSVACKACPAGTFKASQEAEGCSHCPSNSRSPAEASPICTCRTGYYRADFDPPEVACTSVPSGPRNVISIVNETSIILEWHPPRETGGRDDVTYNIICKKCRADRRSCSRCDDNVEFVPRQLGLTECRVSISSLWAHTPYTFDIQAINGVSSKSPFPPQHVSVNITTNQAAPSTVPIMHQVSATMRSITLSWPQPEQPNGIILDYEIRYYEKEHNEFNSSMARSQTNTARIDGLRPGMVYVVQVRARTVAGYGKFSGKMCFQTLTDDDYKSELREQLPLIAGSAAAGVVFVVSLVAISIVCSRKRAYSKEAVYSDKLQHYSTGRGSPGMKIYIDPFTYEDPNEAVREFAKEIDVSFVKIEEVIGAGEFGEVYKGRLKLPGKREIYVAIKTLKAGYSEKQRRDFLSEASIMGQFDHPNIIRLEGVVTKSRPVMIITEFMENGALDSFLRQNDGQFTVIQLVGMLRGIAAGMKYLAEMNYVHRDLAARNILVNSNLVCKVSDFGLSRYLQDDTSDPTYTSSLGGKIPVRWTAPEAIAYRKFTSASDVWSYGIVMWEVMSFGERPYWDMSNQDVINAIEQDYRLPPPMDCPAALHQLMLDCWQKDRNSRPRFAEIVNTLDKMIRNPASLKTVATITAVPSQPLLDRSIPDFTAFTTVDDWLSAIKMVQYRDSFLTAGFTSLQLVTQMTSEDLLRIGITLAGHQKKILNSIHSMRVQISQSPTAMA

[7] = tested on: AncSZ; assay: as above
[8] = molecular target: FGFR3 (UniProt P22607); assay: as above
Sequence of FGFR3 (P22607 whole entry, looked up): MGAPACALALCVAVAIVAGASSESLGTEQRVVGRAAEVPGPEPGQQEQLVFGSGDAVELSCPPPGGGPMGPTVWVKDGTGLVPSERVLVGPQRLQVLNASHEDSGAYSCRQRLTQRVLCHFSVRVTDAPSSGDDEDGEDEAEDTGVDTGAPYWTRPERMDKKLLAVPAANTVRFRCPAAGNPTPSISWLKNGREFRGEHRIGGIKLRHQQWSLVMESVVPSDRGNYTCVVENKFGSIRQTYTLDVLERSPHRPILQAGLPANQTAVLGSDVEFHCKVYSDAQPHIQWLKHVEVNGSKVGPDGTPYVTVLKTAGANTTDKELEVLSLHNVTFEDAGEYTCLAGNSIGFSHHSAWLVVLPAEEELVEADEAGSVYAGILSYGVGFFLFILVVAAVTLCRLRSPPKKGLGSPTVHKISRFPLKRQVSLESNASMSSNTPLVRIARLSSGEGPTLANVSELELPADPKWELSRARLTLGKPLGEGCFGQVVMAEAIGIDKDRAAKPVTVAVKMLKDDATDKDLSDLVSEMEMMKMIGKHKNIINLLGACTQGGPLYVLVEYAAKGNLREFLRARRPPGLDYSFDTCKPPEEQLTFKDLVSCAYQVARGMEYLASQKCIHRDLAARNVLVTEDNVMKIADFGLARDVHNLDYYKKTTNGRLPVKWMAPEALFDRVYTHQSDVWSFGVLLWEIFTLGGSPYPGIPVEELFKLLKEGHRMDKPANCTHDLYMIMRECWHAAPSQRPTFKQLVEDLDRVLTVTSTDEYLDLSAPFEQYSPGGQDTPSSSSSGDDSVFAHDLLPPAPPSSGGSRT

[9] = molecular target: FGFR1 (UniProt P11362); assay: as above
[10] = tested on: Fer (mouse); assay: as above
[11] = tested on: c-Src; assay: as above
[12] = molecular target: Jak2 (UniProt O60674); assay: as above
[13] = molecular target: Fyn (UniProt P06241); assay: as above
Sequence of Fyn (P06241 whole entry, looked up): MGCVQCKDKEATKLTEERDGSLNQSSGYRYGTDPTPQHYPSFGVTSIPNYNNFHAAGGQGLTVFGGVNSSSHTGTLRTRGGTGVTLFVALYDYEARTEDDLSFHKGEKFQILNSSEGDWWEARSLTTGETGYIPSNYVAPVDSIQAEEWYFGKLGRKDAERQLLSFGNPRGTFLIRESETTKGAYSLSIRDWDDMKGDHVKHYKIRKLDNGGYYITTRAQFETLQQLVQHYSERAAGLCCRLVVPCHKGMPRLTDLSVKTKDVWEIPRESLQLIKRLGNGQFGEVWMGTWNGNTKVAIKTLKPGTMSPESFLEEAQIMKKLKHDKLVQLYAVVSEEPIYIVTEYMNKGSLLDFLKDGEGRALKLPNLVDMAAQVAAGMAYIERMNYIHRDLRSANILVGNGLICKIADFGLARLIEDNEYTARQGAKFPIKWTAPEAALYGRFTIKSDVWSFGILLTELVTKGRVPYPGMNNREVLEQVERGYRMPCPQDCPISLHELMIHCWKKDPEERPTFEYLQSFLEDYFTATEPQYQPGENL

[14] = molecular target: SHP2-C SH2; assay: SH2 binding enrichment of the phosphorylated peptide, bacterial display (enrichment ratio); higher = better substrate or ligand; peptides without Tyr show the background
[15] = molecular target: Grb2 SH2 (UniProt P62993); assay: as above
Sequence of Grb2 SH2 (P62993 whole entry, looked up): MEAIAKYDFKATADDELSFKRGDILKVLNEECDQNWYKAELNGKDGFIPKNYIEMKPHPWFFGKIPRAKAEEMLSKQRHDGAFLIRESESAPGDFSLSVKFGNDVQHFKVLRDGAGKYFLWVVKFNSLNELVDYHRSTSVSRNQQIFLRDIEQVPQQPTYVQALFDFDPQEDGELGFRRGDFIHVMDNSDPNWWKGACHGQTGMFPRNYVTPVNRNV

[16] = molecular target: c-Src SH2; assay: as above
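For SH2 binding enrichment of the phosphorylated peptide, bacterial display in this document: peptide library displayed on the E. coli surface as eCPX fusions, selected cells deep-sequenced, score is each peptide's frequency after selection divided by its frequency in the input.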
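For phosphorylation enrichment, bacterial display in this document: 11-residue human phosphosite peptides and single-mutation variants displayed on the E. coli surface, counted by deep sequencing, each peptide's frequency after selection divided by its frequency in the unselected input library; frequency after pTyr selection over input frequency; kinase dosed for 20-30% of maximal phosphorylation in three min.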

Sequence of Hck (P08631 whole entry, looked up): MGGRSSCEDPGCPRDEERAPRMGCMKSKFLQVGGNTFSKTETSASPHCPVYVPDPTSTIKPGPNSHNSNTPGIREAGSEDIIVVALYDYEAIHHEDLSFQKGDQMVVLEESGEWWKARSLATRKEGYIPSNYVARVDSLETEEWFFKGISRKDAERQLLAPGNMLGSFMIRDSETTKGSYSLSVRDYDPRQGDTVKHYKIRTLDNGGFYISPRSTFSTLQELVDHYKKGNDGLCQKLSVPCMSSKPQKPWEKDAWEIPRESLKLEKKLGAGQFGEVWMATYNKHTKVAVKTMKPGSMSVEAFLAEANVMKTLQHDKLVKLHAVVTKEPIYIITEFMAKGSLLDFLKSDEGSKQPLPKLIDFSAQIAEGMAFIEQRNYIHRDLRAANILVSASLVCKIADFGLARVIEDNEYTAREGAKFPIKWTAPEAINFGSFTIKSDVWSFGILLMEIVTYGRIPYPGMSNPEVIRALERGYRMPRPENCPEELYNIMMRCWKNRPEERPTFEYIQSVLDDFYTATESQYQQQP
Sequence of Fes (P07332 whole entry, looked up): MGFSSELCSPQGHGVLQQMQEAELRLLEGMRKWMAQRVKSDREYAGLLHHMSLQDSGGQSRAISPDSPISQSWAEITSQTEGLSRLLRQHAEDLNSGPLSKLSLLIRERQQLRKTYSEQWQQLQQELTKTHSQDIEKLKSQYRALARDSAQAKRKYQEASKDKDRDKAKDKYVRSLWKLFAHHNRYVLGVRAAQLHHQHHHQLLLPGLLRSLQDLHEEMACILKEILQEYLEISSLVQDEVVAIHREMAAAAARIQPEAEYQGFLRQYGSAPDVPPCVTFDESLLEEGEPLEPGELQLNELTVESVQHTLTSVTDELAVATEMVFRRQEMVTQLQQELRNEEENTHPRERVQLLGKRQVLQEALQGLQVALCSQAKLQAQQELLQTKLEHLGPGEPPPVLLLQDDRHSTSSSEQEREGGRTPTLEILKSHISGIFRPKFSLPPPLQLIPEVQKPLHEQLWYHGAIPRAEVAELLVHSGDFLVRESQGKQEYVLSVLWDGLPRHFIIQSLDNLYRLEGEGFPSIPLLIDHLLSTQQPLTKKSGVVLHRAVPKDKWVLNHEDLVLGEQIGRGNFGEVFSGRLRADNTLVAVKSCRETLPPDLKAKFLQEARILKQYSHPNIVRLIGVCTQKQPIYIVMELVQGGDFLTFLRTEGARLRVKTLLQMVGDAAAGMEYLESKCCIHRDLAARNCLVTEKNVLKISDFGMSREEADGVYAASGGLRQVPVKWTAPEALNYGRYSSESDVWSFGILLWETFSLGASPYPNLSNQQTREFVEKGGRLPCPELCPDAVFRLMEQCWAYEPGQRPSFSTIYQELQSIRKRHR
Sequence of EPHB2 (P29323 whole entry, looked up): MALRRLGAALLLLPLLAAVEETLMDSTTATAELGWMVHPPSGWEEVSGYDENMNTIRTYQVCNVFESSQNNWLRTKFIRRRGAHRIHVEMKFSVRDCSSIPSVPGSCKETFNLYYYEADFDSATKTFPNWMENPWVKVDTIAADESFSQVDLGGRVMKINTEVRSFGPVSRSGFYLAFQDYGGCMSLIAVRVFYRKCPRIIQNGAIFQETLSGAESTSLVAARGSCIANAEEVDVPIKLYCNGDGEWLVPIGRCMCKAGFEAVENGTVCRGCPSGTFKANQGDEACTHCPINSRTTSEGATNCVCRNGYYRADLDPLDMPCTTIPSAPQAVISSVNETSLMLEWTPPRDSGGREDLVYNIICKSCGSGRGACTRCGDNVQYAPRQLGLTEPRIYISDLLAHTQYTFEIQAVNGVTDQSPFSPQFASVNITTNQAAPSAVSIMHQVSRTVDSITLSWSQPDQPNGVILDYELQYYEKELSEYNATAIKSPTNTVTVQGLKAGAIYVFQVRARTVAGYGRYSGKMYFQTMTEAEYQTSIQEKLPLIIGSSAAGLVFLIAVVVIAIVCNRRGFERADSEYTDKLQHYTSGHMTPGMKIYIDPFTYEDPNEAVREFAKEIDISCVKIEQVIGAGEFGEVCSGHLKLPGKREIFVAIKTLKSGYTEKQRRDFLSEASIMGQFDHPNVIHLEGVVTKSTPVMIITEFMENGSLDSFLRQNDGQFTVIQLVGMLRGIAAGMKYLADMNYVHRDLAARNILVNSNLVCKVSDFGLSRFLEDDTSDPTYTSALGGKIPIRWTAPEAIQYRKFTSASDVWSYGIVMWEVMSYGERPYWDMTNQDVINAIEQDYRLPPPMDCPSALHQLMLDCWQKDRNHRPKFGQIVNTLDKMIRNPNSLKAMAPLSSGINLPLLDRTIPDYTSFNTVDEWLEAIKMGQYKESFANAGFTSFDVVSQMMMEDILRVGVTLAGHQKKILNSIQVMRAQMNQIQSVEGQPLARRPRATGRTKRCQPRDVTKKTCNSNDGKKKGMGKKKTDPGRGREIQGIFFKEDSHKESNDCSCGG

Sequence | phosphorylation enrichment [1] | phosphorylation enrichment [2] | phosphorylation enrichment [3] | phosphorylation enrichment [4] | phosphorylation enrichment [5] | phosphorylation enrichment [6] | phosphorylation enrichment [7] | phosphorylation enrichment [8] | phosphorylation enrichment [9] | phosphorylation enrichment [10] | phosphorylation enrichment [11] | phosphorylation enrichment [12] | phosphorylation enrichment [13] | SH2 binding enrichment [14] | SH2 binding enrichment [15] | SH2 binding enrichment [16]
TEVRRYVLPLN [RPE65_Y368_P363T] | 0.401 | 0.526 | 0.407 | 0.887 | 0.4 | 0.377 | 0.649 | 0.785 | 0.482 | 0.514 | 0.38 | 0.661 | 0.412 | 0.737 | 0.852 | 0.829
HRGFLYLAIEY [TEK_Y899_Y897F] | 0.703 | 1.47 | 0.743 | 1.76 | 0.541 | 0.986 | 1.5 | 0.891 | 0.549 | 0.791 | 0.541 | 1.49 | 0.54 | 0.77 | 1.15 | 0.45
REGAKYVSHSA [ASS1_Y113_G117S] | 0.593 | 0.818 | 0.457 | 0.785 | 0.468 | 0.414 | 0.764 | 0.854 | 0.473 | 0.504 | 0.667 | 0.691 | 0.454 | 0.561 | 0.878 | 0.473
YDAHNYHPLPV [OAT_Y55_G51D] | 3.58 | 1.05 | 2.01 | 0.685 | 1.62 | 0.923 | 0.871 | 7.27 | 12.7 | 6.52 | 0.622 | 0.848 | 0.864 | 0.697 | 1.15 | 0.813
TLNTNYHLPPS [MT-ATP8_Y33_M28T] | 0.57 | 0.655 | 0.343 | 0.587 | 0.451 | 1.37 | 0.698 | 1.69 | 2.51 | 0.372 | 0.403 | 0.485 | 0.47 | 0.608 | 0.761 | 0.483
KHGGNYVPAPE [OSCP1_Y237_K242E] | 0.345 | 0.455 | 0.325 | 0.626 | 0.471 | 0.369 | 0.754 | 0.477 | 0.403 | 0.36 | 0.405 | 0.471 | 0.398 | 0.614 | 0.619 | 0.456
ISKKIYDTIHD [CTNNA3_Y614] | 0.445 | 0.452 | 0.742 | 0.587 | 0.516 | 0.351 | 0.555 | 0.357 | 0.433 | 0.421 | 0.579 | 0.582 | 0.584 | 0.675 | 0.746 | 5.91
QGIYGYHHHMQ [UFSP2_Y287_Y290H] | 9.93 | 4.62 | 9.07 | 0.923 | 4.59 | 2.34 | 0.932 | 0.653 | 0.613 | 10.9 | 7.86 | 0.598 | 9.98 | 1.07 | 1.09 | 1.07
TDISLYPSGGT [TENM4_Y399_V396I] | 0.394 | 0.528 | 0.398 | 0.84 | 0.632 | 0.46 | 0.637 | 0.536 | 0.457 | 0.39 | 0.391 | 0.657 | 0.414 | 0.616 | 0.661 | 0.436
ESFCLYPPVPQ [CYP4B1_Y377_R375C] | 0.447 | 0.739 | 0.484 | 1.12 | 0.595 | 0.805 | 0.874 | 0.647 | 0.539 | 0.582 | 0.477 | 0.906 | 0.459 | 0.842 | 0.895 | 0.56
ERNARYRTPKI [PTK2B_Y699] | 0.697 | 0.527 | 0.351 | 0.515 | 0.276 | 0.314 | 0.562 | 0.369 | 0.316 | 0.313 | 0.351 | 0.409 | 0.33 | 0.71 | 0.599 | 0.428
YIGVTYKNKED [PDGFRA_Y993_E996K] | 0.44 | 0.675 | 0.753 | 1.07 | 0.505 | 0.564 | 0.896 | 0.747 | 0.819 | 0.533 | 0.476 | 0.809 | 0.505 | 1.39 | 0.835 | 0.961
IHFAIYFLKFS [ARMC9_Y107_L108F_YF] | 0.406 | 0.636 | 0.561 | 0.956 | 0.576 | 0.473 | 0.835 | 0.674 | 0.441 | 0.485 | 0.434 | 0.636 | 0.448 | 1.86 | 1.93 | 1.12
QNTGDYCDLYG [PTPN11_Y62_Y63C] | 0.633 | 1.34 | 2.08 | 1.08 | 7.83 | 9.03 | 2.75 | 4.13 | 5.87 | 1.39 | 1.84 | 1.35 | 1.49 | 1.13 | 1.11 | 1.22
QGCSIYKDFFR [PLA2G2D_Y82_YF] | 0.998 | 2.14 | 1.86 | 1.74 | 1.18 | 1.11 | 1.44 | 1.28 | 0.721 | 0.774 | 6.61 | 2.25 | 3.19 | 0.724 | 0.921 | 0.487
REHTVYGEPRK [MAGEA4_Y240] | 0.492 | 1.03 | 0.903 | 0.851 | 0.687 | 0.588 | 0.716 | 0.684 | 0.664 | 0.52 | 0.599 | 0.674 | 0.869 | 0.54 | 0.765 | 0.443
